From patent US20130136731

Target: thrombin, P00734

B1: native tissue plasminogen activator (protein)
chain: SYQVICRDEKTQMIYQQHQSWLRPVLRSNRVEYCWCNSGRAQCHSVPVKSCSEPRCFNGGTCQQALYFSDFVCQCPEGFAGKCCEIDTRATCYEDQGISYRGTWSTAESGAECTNWNSSALAQKPYSGRRPDAIRLGLGNHNYCRNPDRDSKPWCYVFKAGKYSSEFCSTPACSEGNSDCYFGNGSAYRGTHSLTESGASCLPWNSMILIGKVYTAQNPSAQALGLGKHNYCRNPDGDAKPWCHVLKNRRLTWEYCDVPSCSTCGLRQYSQPQFRIKGGLFADIASHPWQAAIFAKHRRSPGERFLCGGILISSCWILSAAHCFQERFPPHHLTVILGRTYRVVPGEEEQKFEVEKYIVHKEFDDDTYDNDIALLQLKSDSSRCAQESSVVRTVCLPPADLQLPDWTECELSGYGKHEALSPFYSERLKEAHVRLYPSSRCTSQHLLNRTVTDNMLCAGDTRSGGPQANLHDACQGDSGGPLVCLNDGRMTLVGIISWGLGCGQKDVPGVYTKVTNYLDWIRDNMRP
  clotting time assay (fibrin mesh formation): fibrin mesh formation in presence or absence of native tPA up to high micro molar concentrations was essentially unaltered compared to buffer controls
